From patent US20180311371A1 (Hoffmann-La Roche, published 2018)

What was measured:
[1] = target: T1, human TPBG (trophoblast glycoprotein), full length, cell surface expressed (human, UniProt Q13641 32-420); assay: cell ELISA on MCF7 cells; titrated from 5 µg/ml
T1 construct: On MCF7, H1975 and BxPC-3 tumour cells, on SW620 clone 4 and on CHO-K1 cells transfected with full length human TPBG; also called huTPBG; 5T4
T1 sequence: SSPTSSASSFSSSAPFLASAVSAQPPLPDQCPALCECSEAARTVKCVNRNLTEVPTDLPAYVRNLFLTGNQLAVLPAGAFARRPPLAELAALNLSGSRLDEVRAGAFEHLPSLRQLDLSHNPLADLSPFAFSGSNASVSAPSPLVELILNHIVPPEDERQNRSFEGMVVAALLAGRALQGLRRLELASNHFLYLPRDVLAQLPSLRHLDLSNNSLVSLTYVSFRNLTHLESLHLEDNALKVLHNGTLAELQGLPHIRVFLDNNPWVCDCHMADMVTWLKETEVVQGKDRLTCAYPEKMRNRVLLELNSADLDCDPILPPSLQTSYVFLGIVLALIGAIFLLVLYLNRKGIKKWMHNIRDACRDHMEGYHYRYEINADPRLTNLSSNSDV

[2] = target: T2, minipig TPBG, full length, cell surface expressed on CHO-K1 cells (minipig); assay: cell-based or functional assay
T2 chain: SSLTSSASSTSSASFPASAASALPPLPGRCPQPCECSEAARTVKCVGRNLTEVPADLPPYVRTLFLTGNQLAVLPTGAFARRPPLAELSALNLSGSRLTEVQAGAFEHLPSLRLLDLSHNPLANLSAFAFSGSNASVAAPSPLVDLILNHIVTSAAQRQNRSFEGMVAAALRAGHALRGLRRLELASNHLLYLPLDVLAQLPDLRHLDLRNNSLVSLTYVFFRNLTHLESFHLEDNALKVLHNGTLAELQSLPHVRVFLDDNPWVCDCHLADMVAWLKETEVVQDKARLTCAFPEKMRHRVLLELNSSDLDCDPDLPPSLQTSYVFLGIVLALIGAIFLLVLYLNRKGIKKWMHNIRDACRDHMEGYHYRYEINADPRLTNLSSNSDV

[3] = target: T1, human TPBG (trophoblast glycoprotein), …; assay: cell-based or functional assay
[4] = target: T3, recombinant extracellular domain of minipig TPBG (Biacore analyte) (minipig); assay: SPR Biacore T200; Fab captured by anti-huFab, minipig TPBG injected
T3 chain: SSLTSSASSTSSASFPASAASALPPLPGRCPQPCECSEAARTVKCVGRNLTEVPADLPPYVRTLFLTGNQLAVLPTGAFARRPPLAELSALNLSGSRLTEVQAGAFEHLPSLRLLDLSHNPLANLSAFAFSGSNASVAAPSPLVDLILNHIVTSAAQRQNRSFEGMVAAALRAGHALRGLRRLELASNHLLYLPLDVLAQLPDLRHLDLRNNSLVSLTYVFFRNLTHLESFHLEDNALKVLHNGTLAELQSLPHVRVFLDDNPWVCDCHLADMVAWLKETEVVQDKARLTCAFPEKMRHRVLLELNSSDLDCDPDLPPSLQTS

B1: anti-TPBG antibody 091, Fab fragment (Fab, V domains shown)
VH: EVHLLESGGGLVHPGGSLRLSCAASGFTFRSDAMHWVRQAPGKGLEWVSGVSGSGGSPYYADSVKGRFTISRDDSKTTLYLQMNSLRAEDTAVYYCATGGSIAGSYYYYPMDVWGQGTTVTVSS
VL: DIQMTQSPSSLSASVGDRVTITCQASQDISNYLNWYQQKPGKAPKLLIYAASTLQIGVPSRFSGSGSGTDFTFTISSLQPEDFATYYCQQANSFPLTFGGGTKVEIK
notes: also called Fab2
[1]
  EC50: 0.014 µg/mL
[2]
  EC50 cytotoxicity, Fab + anti-kappa-Fab-PE, CHO-K1/minipig TPBG, replicate 1: 1.05 nM
  EC50 cytotoxicity, Fab + anti-kappa-Fab-PE, CHO-K1/minipig TPBG, replicate 2: 1.2 nM
[3]
  EC50 cytotoxicity, Fab + anti-kappa-Fab-PE, CHO-K1/human TPBG, replicate 1: 0.23 nM
  EC50 cytotoxicity, Fab + anti-kappa-Fab-PE, CHO-K1/human TPBG, replicate 2: 0.24 nM
[4]
  Kd: 1.74 nM
  koff: 0.000205 s⁻¹
  kon: 118000 M⁻¹ s⁻¹
